The values below come from publication PMC3830201 (2013).

This experiment addresses F-actin assembled from rabbit skeletal muscle G-actin (Oryctolagus cuniculus (Rabbit), UniProt P68135). The experiment is described as follows: F-actin co-sedimentation.

B1: GST-Swiprosin-1 fusion protein (wild type) (protein)
chain: MATDELATKLSRRLQMEGEGGGETPEQPGLNGAAAAAAGAPDEAAEALGSADCELSAKLLRRADLNQGIGEPQSPSRRVFNPYTEFKEFSRKQIKDMEKMFKQYDAGRDGFIDLMELKLMMEKLGAPQTHLGLKNMIKEVDEDFDSKLSFREFLLIFRKAAAGELQEDSGLCVLARLSEIDVSSEGVKGAKSFFEAKVQAINVSSRFEEEIKAEQEERKKQAEEMKQRKAAFKELQSTFK
Take B1: the binding result was “binds”.
